In PMC3162038 one finds Km data, which are given here for one protein.

Substrate in the series: N[C@H]1C[C@H](COP(=O)(O)O)[C@@H](O)[C@H](O)[C@H]1O
The series is described as follows: PK/LDH coupled colorimetric assay at A340, Hanes-Woolf plot. The series is classed as biochemical, Streptomyces hygroscopicus. Conditions: 300 μM GDP-valienol, 50 mM Tris-HCl pH 7.5, 5 mM MgCl2, apparent.

B1: VldE (Streptomyces hygroscopicus subsp. limoneus) (protein)
chain: MTGSEIFLASKRAAITYDTDPATGEPRAWLAPGGTGNVVAEQAGVLNISWIASADSEDDRRASALNPDGVTMELHSGREILVRLIRHDPAVFRNVQNFMTANLMWAANNYGWDRWTQPSFGSDAREGWADFGRFTRDFADAILKSSAQSADPVYLVHDYQLVGVPALLREQRPDAPILLFVHIPWPSADYWRILPKEIRTGILHGMLPATTIGFFADRWCRNFLESVADLLPDARIDREAMTVEWRGHRTRLRTMPLGYSPLTLDGRNPQLPEGIEEWADGHRLVVHSGRTDPIKNAERAVRAFVLAARGGGLEKTRMLVRMNPNRLYVPANADYVHRVETAVAEANAELGSDTVRIDNDNDVNHTIACFRRADLLIFNSTVDGQNLSTFEAPLVNERDADVILSETCGAAEVLGEYCRSVNPFDLVEQAEAISAALAAGPRQRAEAAARRRDAARPWTLEAWVQAQLDGLAADHAARTATAERFDTAPAVSTRADL
B1: the Km was found to be 308.0 ± 34.5 µM.

Usually Km stands for the substrate concentration at which the rate is half of its maximum.
